Biological target: MK-1654 IgG (human)
Assay: SPR; Biacore 8K+; MK-1654 IgG captured on a Protein A chip (about 110 RU); 1A6 or 1D4 Fab flowed at 0.4-128 nM, 60 s contact and 60 s dissociation, 30 µL/min; global 1:1 fit; KD = koff/kon; averages of three runs

Chain of MK-1654 IgG (human) (heavy, as listed by the source, chain 1 of 2): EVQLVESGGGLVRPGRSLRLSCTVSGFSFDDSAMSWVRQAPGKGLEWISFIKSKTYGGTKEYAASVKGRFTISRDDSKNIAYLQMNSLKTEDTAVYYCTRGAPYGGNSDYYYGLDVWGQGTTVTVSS
Chain of MK-1654 IgG (human) (light, as listed by the source, chain 2 of 2): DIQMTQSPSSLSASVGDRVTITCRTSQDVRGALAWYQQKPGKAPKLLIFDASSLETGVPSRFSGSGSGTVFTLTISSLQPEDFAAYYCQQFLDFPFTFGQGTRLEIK

Kd [nM] | koff [s⁻¹] | kon [M⁻¹ s⁻¹] | Binder
0.94 | 0.00628 | 6.67e+06 | 1A6 anti-idiotypic Fab (Fab, V domains shown) VH: QVQLVESGGGLVQPGGSLRLSCAASGFTFSSYAMNWVRQAPGKGLEWVSLISGSGSSTYYADSVKGRFTISRDNSKNTLYLQMNSLRAEDTAVYYCARFHTHGGYFDIWGQGTLVTVSS VL: DIALTQPASVSGSPGQSITISCTGTSSDIGAYTYGSWYQQHPGKAPKLMIYGVNNRPSGVSNRFSGSKSGNTASLTISGLQAEDEADYYCASFDFSVSGVVFGGGTKLTVL
3.75 | 0.013 | 3.5e+06 | 1D4 anti-idiotypic Fab (Fab, V domains shown) VH: QVQLVESGGGLVQPGGSLRLSCAASGFTFSSSGLHWVRQAPGKGLEWVSGIDSSSSTTYYADSVKGRFTISRDNSKNTLYLQMNSLRAEDTAVYYCARYYFDVWGQGTLVTVSS VL: DIELTQPPSVSVAPGQTARISCSGDSIGTYAYWYQQKPGQAPVLVIYADDNRPSGIPERFSGSNSGNTATLTISGTQAEDEADYYCSSWATDNAPVFGGGTKLTVL

Reference: publication PMC11768756
